Drawing on the supplement of paper PMC12042874, this text covers amyloid nucleation score for 140 substances.

± gives the uncertainty stated by the source.

The series can be described thus: amyloid nucleation score (Sup35N fusion, yeast selection) (log enrichment); library NNK2; higher = more nucleation; inactive = no reads after selection. The method, boiled down: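 The nucleation score is a DiMSum log enrichment of output over input reads, centred on the mode score of non-aggregating sequences. Sequences under 100 input reads were excluded, and reads came from Illumina sequencing of plasmid inserts. Psi-negative yeast expressing Sup35N fused to peptides of 20 random codons were induced with 100 μM copper sulfate for 24 hours and grown 7 days at 30°C on medium lacking adenine and uracil. Random libraries had three technical output replicates.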
VFDAKTFGGDTVFVAAEAHS had an amyloid nucleation score of -0.669 ± 1.

For FGYYQLYNDQGGYYPMSSAS, the amyloid nucleation score entry is “inactive”.

In turn, SIDSRYW had an amyloid nucleation score of -0.283 ± 0.63.

Turning to SMDRIQEGLHRQLVFDVSE, the amyloid nucleation score was 0.624 ± 0.35.

As to FGFIYGTRVEGLSIVSRQSR, the amyloid nucleation score is 2.36 ± 0.14.

Turning to RLKWKLEQNSSLLWGRYRTA, the amyloid nucleation score is 1.24 ± 0.14.

For DFYMYSVVDLS, the amyloid nucleation score is -0.767 ± 0.31.

In the case of YIWILWIAMEQNKSWRGQHD, the amyloid nucleation score stood at 4.44 ± 0.12.

Regarding PRPFGKNWVKKDLNCLHKLN, the amyloid nucleation score was -0.251 ± 0.35.

In the case of DPWRGGPVSSH, the amyloid nucleation score came out at 1.18 ± 0.23.

Take KKVRNC: the amyloid nucleation score was 0.436 ± 0.8.

As to NWGAWLNWFNLVIYGCRVIN, the amyloid nucleation score is 6.03 ± 0.079.

Regarding VWALKGMIYN, the amyloid nucleation score was found to be 0.33 ± 0.17.

Substance GRLLFAWLYLCDYGGYIMRV showed an amyloid nucleation score of -0.081 ± 1.1.

RSSGLIGLGWKQI came in with an amyloid nucleation score of -1.67 ± 0.75.

Regarding LTIDTTFVITSRYTCQLWQR, the amyloid nucleation score was 4.2 ± 0.056.

With SVYMLRLNYYSFVVLRQTGA, the amyloid nucleation score is -0.135 ± 0.79.

Regarding VDRRNAKYWRGRKSTWVRGV, the amyloid nucleation score was 1.3 ± 0.26.

For ATMEGSAECVFTRDIKIFRH, the amyloid nucleation score entry was “inactive”.

PCRFTYRRWTG displayed an amyloid nucleation score of -0.496 ± 0.41.

With NRSDPDLCNKC, the amyloid nucleation score came out at 1.96 ± 0.14.

In the case of FYAHYASHL, the amyloid nucleation score entry was “inactive”.

The substance CVTDATVKNYI gave an amyloid nucleation score of -1.42 ± 0.78.

For the substance ASNMIV, the amyloid nucleation score was -0.563 ± 0.33.

Substance DESSSRDETCGVFTHLVCVV returned an amyloid nucleation score of -0.249 ± 0.28.

Consider CLWVRGSCC, for which the amyloid nucleation score is -1.04 ± 0.55.

As to LDATNSKNVYRMPAWKGNMR, the amyloid nucleation score was found to be 0.564 ± 0.32.

In turn, HCNLSWSCTSGIALSRT showed an amyloid nucleation score of 4.54 ± 0.1.

As for CIRTDFGA, the amyloid nucleation score was -0.086 ± 0.35.

In turn, TYLVQWMCCRWMPMHFRIMT gave an amyloid nucleation score of -0.369 ± 0.79.

In turn, YCGFQYLRWGVTVVNS gave an amyloid nucleation score of 0.386 ± 0.19.

The substance NDRILPYSNLWHWERLV displayed an amyloid nucleation score of -0.567 ± 1.1.

With ISSSKRYVLKS, the amyloid nucleation score was found to be 0.583 ± 0.39.

Regarding MNFCNHPLMDLMVSDLAWWM, the amyloid nucleation score came out at 0.112 ± 0.37.

For QINSHNWYDG, the amyloid nucleation score was found to be 0.369 ± 0.8.

Consider CRMMI, for which the amyloid nucleation score was found to be 0.591 ± 0.36.

Substance YSLLLTIKPTTSWRCVSDGH gave an amyloid nucleation score of 2.27 ± 0.23.

IKVSFRRTGGLLHLCKWLTC had an amyloid nucleation score of -0.5 ± 0.33.

In the case of SNGCRRALL, the amyloid nucleation score result is “inactive”.

In turn, TFCEWMLWNTLCQVLSVPPY registered an amyloid nucleation score of 6.423 ± 0.045.

On to LTGALREFPIYSGANDIWWR, for which the amyloid nucleation score is -0.796 ± 0.44.

For the substance TLATTGTHCVYYKNSWCKFR, the amyloid nucleation score is -0.498 ± 0.63.

RFVVSEGLIGVVGSSKLILY registered an amyloid nucleation score of 0.106 ± 1.

In turn, SFQPMRQFNFMINLWTVGAA showed an amyloid nucleation score of 7.179 ± 0.056.

On to YVDLKVACILYPYFSGTRQH, for which the amyloid nucleation score is 4.96 ± 0.078.

In the case of GQWRKGAYMVC, the amyloid nucleation score was determined as 0.477 ± 0.34.

Consider DEIQGLNRRYLPRG, for which the amyloid nucleation score was 0.936 ± 0.52.

As for GQPRLRSY, the amyloid nucleation score was 3.89 ± 0.1.

For the substance CNLWSDLGWYYQAMWKIRRD, the amyloid nucleation score entry was “inactive”.

As for LLRRNFNYVYIIYLILSSPV, the amyloid nucleation score result is “inactive”.

Turning to SILLRKRQELSNFTMW, the amyloid nucleation score was -0.67 ± 0.76.

In the case of APRGLTFVQQSVSSIHLTAK, the amyloid nucleation score is 0.345 ± 0.39.

As for TILGSLHFNFVKCHSKCSYF, the amyloid nucleation score is 7.238 ± 0.061.

In turn, TRYSILVDRRNRIFVVADPD yielded an amyloid nucleation score of 0.615 ± 0.32.

NICLGMCLYHGVSDAVDQSR showed an amyloid nucleation score of 7.971 ± 0.055.

Substance GKLLRHFGLMYCLFLIAAYG displayed an amyloid nucleation score of 0.108 ± 0.42.

Turning to DREWVYYCGYWECTMFRCIY, the amyloid nucleation score was 1.12 ± 0.16.

FWFKV displayed an amyloid nucleation score of 0.335 ± 0.42.

Substance FRRLNTATRRCVTSG had an amyloid nucleation score of -1.13 ± 0.55.

In turn, HYYLSTVSVYIGMPIRWFSG returned an amyloid nucleation score of 0.371 ± 0.38.

In turn, ISCCDRGCDAYLEVWPKLNK had an amyloid nucleation score of -0.523 ± 1.

GDTVRRLRLEHKSVDLMIQY gave an amyloid nucleation score of 3.73 ± 0.087.

For GLLPFGISAMNLRFHQGVAR, the amyloid nucleation score is -0.359 ± 0.2.

For the substance NQDPRSRLLSNELYGCHFVL, the amyloid nucleation score is -0.214 ± 0.28.

GHSIVLCCRSESPLKKSRYM: the amyloid nucleation score was -0.432 ± 1.

Turning to SRCLSSITVLTCNHMSVKAC, the amyloid nucleation score was found to be 0.224 ± 0.8.

On to CSSNCFYEAFVLGYKTHARE, for which the amyloid nucleation score turned out to be 0.295 ± 1.

Regarding ESIGVINCYWIWATSIPLEG, the amyloid nucleation score result is “inactive”.

For the substance SWGSVRNRMCMSGGRKSSDA, the amyloid nucleation score result was “inactive”.

CSSEDITYAWQWARWLRS yielded an amyloid nucleation score of 0.494 ± 0.41.

Regarding RRFVLARVPNNKCPQTIRLD, the amyloid nucleation score came out at 0.733 ± 0.48.

VLNRGGETAYTSMFDVYYI gave an amyloid nucleation score of -0.097 ± 0.63.

As for HKVQLVWPFVYLVEVQRRSG, the amyloid nucleation score was 2.85 ± 0.089.

CHLHIYGTRIERAYHRDFFL registered an amyloid nucleation score of 3.4 ± 0.1.

Substance MKFKPDLVLFRYVHVKVYLE registered an amyloid nucleation score of -1.01 ± 1.1.

RIFVWVGSVWFWGVS: the amyloid nucleation score was 3.55 ± 0.13.

In the case of CKEYMMIFMTIIKVYLNTYL, the amyloid nucleation score is -0.698 ± 0.78.

As for LVMFKVTF, the amyloid nucleation score is 6.432 ± 0.04.

For the substance CNRMGFHMFDCF, the amyloid nucleation score entry is “inactive”.

The substance VTGTT registered an amyloid nucleation score of -0.01 ± 1.

In turn, KHIFFLREVVNYFMRRTKGL gave an amyloid nucleation score of -0.507 ± 0.64.

As to SRSFKVRNL, the amyloid nucleation score entry was “inactive”.

Substance LNSYFTFVWTSVFGCVDPYE gave an amyloid nucleation score of 5.723 ± 0.035.

IFNDVIFNLRFC returned an amyloid nucleation score of 7.443 ± 0.054.

For the substance ISHTLHATITVLLVSNFCLS, the amyloid nucleation score worked out at 0.475 ± 0.43.

As for YVTPKDDSDAVWGLTLMEMS, the amyloid nucleation score was determined as 0.292 ± 0.39.

The substance HLRYGGFAV yielded an amyloid nucleation score of 0.085 ± 0.2.

Take NFSYRSFNRLVRGRD: the amyloid nucleation score entry is “inactive”.

As to FTMYPITG, the amyloid nucleation score came out at 0.311 ± 0.29.

Take NILWSNLGRMCRQLFAVFWS: the amyloid nucleation score is -0.738 ± 0.62.

In the case of NVWVSDFVGERAGDLHLSLY, the amyloid nucleation score came out at 0.025 ± 1.1.

In turn, FNRKTKWAYFWLVHGRNR displayed an amyloid nucleation score of 5.213 ± 0.052.

Regarding DNMGMRSGSSDLHREVWSHC, the amyloid nucleation score came to 0.172 ± 0.35.

Take FLSWCFW: the amyloid nucleation score came to 0.841 ± 0.42.

Regarding LPHLCCIIY, the amyloid nucleation score worked out at 2.56 ± 0.066.

Regarding FSIGGVKGEGSKFQGGSQMS, the amyloid nucleation score was -0.12 ± 1.

Turning to LLGLSGKYWIRGSKNSIFVW, the amyloid nucleation score turned out to be 0.157 ± 0.39.

Take YIVPSKRIWFFGLSSNGDST: the amyloid nucleation score was found to be 0.102 ± 0.41.

TLLSNTSKLFLLHNYHQWVM showed an amyloid nucleation score of 0.062 ± 0.74.

Take AVSHCMDDSFWGAIHKRLLY: the amyloid nucleation score amounted to 3.63 ± 0.15.

NSVFKGFLNRFRF yielded an amyloid nucleation score of 2.32 ± 0.19.

For the substance GQFGVCITSPARQLSYD, the amyloid nucleation score result was “inactive”.

In turn, LYSVGVR gave an amyloid nucleation score of -0.387 ± 1.1.

In turn, SGDLMYSGRTSPMPAAQKFV returned an amyloid nucleation score of -0.393 ± 1.1.

In the case of HMNFRWLYMSIYVISLLEAL, the amyloid nucleation score entry was “inactive”.

As to TLWLMPDLRTRLEAGCRYKT, the amyloid nucleation score is -0.08 ± 0.44.

Take ANKTSPICSCVFNEL: the amyloid nucleation score is 6.3 ± 0.088.

RVKLACTRLCWLSADFDGNL: the amyloid nucleation score came out at 4.04 ± 0.079.

For the substance AMDMI, the amyloid nucleation score is 0.833 ± 0.8.

As for CWSPLGTFSLLALMGASKTL, the amyloid nucleation score amounted to 0.103 ± 0.42.

With SMIIQTQHI, the amyloid nucleation score turned out to be 0.024 ± 0.55.

Take QPSVL: the amyloid nucleation score stood at 0.524 ± 0.81.

In the case of SKIVCDMFLGHEDLPCTRLF, the amyloid nucleation score came out at 0.057 ± 1.1.

RLDYNSSCQIFLFAGFMYLF gave an amyloid nucleation score of 3.23 ± 0.067.

The substance FNGLVVFSEHMIRITACDEG showed an amyloid nucleation score of -0.479 ± 1.

As for CTDQRGLSIIVLGYNSHSMR, the amyloid nucleation score is 5.682 ± 0.054.

Take YNKGNACISGYYGCSLA: the amyloid nucleation score was determined as 7.41 ± 0.083.

As to SAFTNRYHLPSERVGHWCPV, the amyloid nucleation score came to 0.224 ± 0.74.

As to YVKVRWCGTSPCNEFLRSSY, the amyloid nucleation score was determined as 0.429 ± 0.66.

On to ARVIFAVSVLEFRVGYSQGA, for which the amyloid nucleation score was determined as 3.87 ± 0.086.

Substance VEFLWGFWWYKPQRKSVGST returned an amyloid nucleation score of -1.54 ± 0.75.

FFSRTKYDSSRLKPWGMDIS displayed an amyloid nucleation score of 0.523 ± 0.64.

The substance WELHMI registered an amyloid nucleation score of -0.61 ± 1.1.

Consider LWHGYGRFRVLSVVF, for which the amyloid nucleation score was 3.53 ± 0.045.

REFMNFWHWRVCICAQE displayed an amyloid nucleation score of -0.501 ± 0.38.

On to CTRRDFFGQTTAHVSVWCTG, for which the amyloid nucleation score was determined as 4.33 ± 0.081.

As for SSCPYYHGYNVRVMSCSHVI, the amyloid nucleation score amounted to 0.091 ± 0.4.

The substance WRCDLSNPTFAMYVDAVWAS had an amyloid nucleation score of 1.16 ± 0.18.

In turn, YYSLY gave an amyloid nucleation score of -0.904 ± 0.36.

On to RYNESEVSISRETRNVVLTF, for which the amyloid nucleation score turned out to be 0.712 ± 0.26.

As for LYKAGIGILLTGVILVF, the amyloid nucleation score was -1.12 ± 0.6.

FCLTVLVV returned an amyloid nucleation score of 4.18 ± 0.11.

The substance STLSWSFIYTSIC yielded an amyloid nucleation score of 2.24 ± 0.1.

With TTIFYKPLQCLLGLFFYP, the amyloid nucleation score was -0.623 ± 1.

In turn, YNKWLMASLPRIVGT had an amyloid nucleation score of -0.47 ± 1.1.

Turning to DGYLRYYSNLDG, the amyloid nucleation score came to 0.147 ± 1.1.

Regarding LLLITVVIRCRSWVWGWLIS, the amyloid nucleation score was -0.358 ± 0.74.

The substance EHIASLVMNAANSTNPVGQK registered an amyloid nucleation score of -0.339 ± 0.76.

As for FYHISYGERKRGGLC, the amyloid nucleation score result was “inactive”.

IGVQVFPRMHVG showed an amyloid nucleation score of 3.06 ± 0.15.
